This note sets out measurements from paper PMC2831815.

Substrate in the series: Nc1ncnc2c1ncn2[C@@H]1O[C@H](COP(=O)(O)OP(=O)(O)OP(=O)(O)O)[C@@H](O)[C@H]1O
Put plainly: purified protein. As to conditions: 10 mM MgCl2, pH 7.6, 37 °C, ATP 0.025-3.5 mM.

B1: TraK (Aeromonas veronii) (protein)
chain: MKNKAGFIGFLLFVFALCSVGSLYLGGYMLLKKSGVDMSALSIHTFFDVNRDLGGDPAFKKIIAWGWIGFAIPYAIFLFFVGVMLVGLMPKKVIYGDGRLATPMDLARSGFFPKKGDKHKQPPILIGKMFKGRFKNSYIYFYGQQFLILYAPTRSGKGVGIVIPNCVNYPESIVVLDIKLENFFLSAGYRKEQGQECFLFSPDGFADNLDAARRGEIKSHRFNPLDYVSRSPLQRESDLKKIAAILYPTSGGENDTWNESASSLWIGLALYLLDMEKVEPKTKVAVSQIIKISVPGSGDPLEKWMELTIKAKSDILGDDTKQYFRKFMSAADRTRASILVNFNNGVAVFSNPITAAATDSSDFDLRDLRKKKMSVYLGLSPNSLVTHAKLVNLFFSLLVNENTKELPENNPELKYQCLLILDEFTSMGRVEIIQKAVGFTAGYNIRFMFILQNKGQLEDDKMYGKEGAETFIENTGVELYYPPKSVNDTAKAISEKIGVRDEKVSSISRSSQSGKTSRSKSTSTEKRAVLLPDEIVSLRDHKNKGGNMAVREIILSDFCRPFIANKIVYFEEPIFMERVNYARKNPIEIPFLFNEDERKTFTCDSISLGSVMKKPDLDNHDQADKSE
For the protein B1, the Km (Discussion prints 0.96 mM instead) stood at 920 µM.

B2: TraE (Aeromonas veronii) (protein)
chain: MKQIKQTPLKKGRTEPVMRMYPDYQFHVSDNVVFTADKKALASIAIEGMPFESISDGVLESDFDSIKNFLVNMGKDGDVYLWTHLVKEKVSLDEEYHFKSDFLNRFSNQYTELFRGSNFFKSTYYLTFGIKYSNISEAIERLDEVIHQAKAVLGKYGAHVLTVDQNRVSGVADYLHLLLNKSHAEIPLSINPISSSIADSEWYFGYDSLELRNNEAEEKKFATNYVVKDFPMFTELGQWDFLLRLPYEFIITQSFIYEAPTKTLKEIDAQLNKMGSAGDAAENQQDELVLGKEVVTSGITLFGSYHCVLTVFGRTADEARKNGIKVSSEFVSAGKGFRFIRTNSAGAHCYFSHMPMNKIRPLATRRTITNLACTFSLHNYSHGKKRGNPIGDGTAIMPLKTVADGLYWFNTHYSEPGRDVRGQKIAGHAMILGATGAGKTTFEGAAAGFLQRFDPYMFVVDFNRSTELFVRAYGGSYFTLKEGEYTGLNPFQICDLDDELAPRLVQFLKSYVKTLAYDQSGKPCSDAQAEELAKAVDATMLLPREMRRLSTLLSRISDPELKIRLAKWCGAGQYAWAVDSPRNTFNPMDFKKVGFDTTVILEKTKDGVHPACEPLLAILFFYKSLMQREGQLMLSIIEEFWMPANFPLTQAMIKSALKAGRMKGEMMWLTSQSPEDAIYCEIFPALVQQTATKILLPNPDADLEGYKKIGLTVKEFDRLKKLGKESRTMLIKQSGSSCFAKMDLYGFDDFLPIISGSMEGITLCEKVRAELGTDNPDIWIPEFLKQLREE
Regarding B2, the Km amounted to 550 µM.

Broadly, the Km is the substrate concentration at which the rate is half of its maximum.
